From publication PMC11493965, “Ethane-oxidising archaea couple CO2 generation to F420 reduction” (Nature Communications, 2024)

Biological target: ζ subunit (F420-reductase subunit) of the CODH component of the ACDS from Candidatus Ethanoperedens thermophilum (Candidatus Ethanoperedens thermophilum)
Test: crystal structure; α2ε2ζ2 ACDS subcomplex purified natively as one complex; sitting drop, anaerobic, 20 °C, 20% PEG 6000, 100 mM MES pH 6.0, 200 mM ammonium chloride, 1 mM FAD and FMN added; refined to 1.89 Å

stoichiometry N: 2
Substance: ζ subunit (F420-reductase subunit) of the CODH component of the ACDS from Candidatus Ethanoperedens thermophilum (natural protein)
